The test concerns the target T1, FVIII/FV^1811-1818 chimera (Homo sapiens, UniProt P00451, E1830S/F1835V/K1832Y/K1837H/T1831S).
T1 construct: FVIII/FV^1811-1818 light chain chimera and wild-type FVIII light chain were purified employing Q-Sepharose chromatography; made in house; host or cells: murine fibroblasts (C127) cells
T1 sequence (P00451 1668-2351 E1830S/T1831S/K1832Y/F1835V/K1837H limits assumed): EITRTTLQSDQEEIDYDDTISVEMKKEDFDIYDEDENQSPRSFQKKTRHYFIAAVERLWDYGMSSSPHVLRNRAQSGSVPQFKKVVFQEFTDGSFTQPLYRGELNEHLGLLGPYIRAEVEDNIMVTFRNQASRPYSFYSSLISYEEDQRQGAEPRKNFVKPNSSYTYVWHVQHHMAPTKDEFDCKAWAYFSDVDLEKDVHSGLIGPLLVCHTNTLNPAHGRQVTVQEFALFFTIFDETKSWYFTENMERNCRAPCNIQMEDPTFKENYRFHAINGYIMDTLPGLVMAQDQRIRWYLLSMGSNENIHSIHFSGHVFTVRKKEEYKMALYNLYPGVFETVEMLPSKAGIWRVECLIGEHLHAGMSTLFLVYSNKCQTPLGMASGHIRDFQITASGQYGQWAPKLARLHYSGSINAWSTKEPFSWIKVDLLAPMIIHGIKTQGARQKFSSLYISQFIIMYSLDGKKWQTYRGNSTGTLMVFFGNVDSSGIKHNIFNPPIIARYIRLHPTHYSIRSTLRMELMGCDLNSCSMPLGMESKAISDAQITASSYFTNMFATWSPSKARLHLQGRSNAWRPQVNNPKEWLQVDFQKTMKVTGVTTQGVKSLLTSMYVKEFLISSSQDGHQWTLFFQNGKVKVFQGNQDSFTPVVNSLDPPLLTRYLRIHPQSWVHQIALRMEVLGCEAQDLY
Put plainly: SPR binding of scFv KM41 to FVIII/FV^1811-1818 light chain chimera. The following applies: scFv 40 nM. Here is the method:
FIG. 7. Binding of scFv KM41 to the FVIII/FV^1811-1818 light chain chimera. ScFv EL14 at a CM5 sensor chip (67 fmol/mm^2) was incubated with either the recombinant wild-type FVIII light chain or the recombinant FVIII/FV^1811-1818 chimera till a density of 20 fmol/mm^2, in 150 mM NaCl, 50 mM Tris (pH 7.4). ScFv KM41 (40 nM) was passed over two separate channels with immobilized intact FVIII light chain (I) or FVIII/FV^1811-1818 chimera (II), respectively. Response is indicated as Resonance Units (RU) and is corrected for nonspecific binding.
The kinetics of protein interactions was determined by surface plasmon resonance (SPR) analysis, employing a BIAcore™2000 biosensor system (Biacore AS, Uppsala, Sweden). […] Association of analyte was assessed in 150 mM NaCl, 2 mM CaCl2, 0.005% (v/v) Tween® 20, and 20 mM Hepes (pH 7.4) for 2 min, at a flow rate of 20 μl/min at 25° C. […] The association (kon) and dissociation (koff) rate constants were determined by using the BIAevaluation software 3.1 (Biacore AB, Uppsala, Sweden). […] Equilibrium dissociation constants (kd) were calculated from the ratio koff/kon. […]

B1: scFv KM41: scFv antibody fragment directed against FVIII region Arg^1803-Lys^1818 (protein)
scFv: QVQLLQSAADVKKPGASVKVSCTASGYIFTSYDIDWVRQATGQGLEWMGWMNPNSGNAGFAQKFKGRLTLTRDTSTSTAYMELRRLESEDTAVYYCARSTPHSYSGSGLPPTSDSWGQGTLVTVSSGGGGSGGGGSGGGGSEIVLTQSPGTLSLSPGERATLSCRASQSVSSSFLGWYQQKPGQAPRLLIYGASSRATGIPDRFSGSGSGTDFTLTISRLEPEDFAVYYCQQYGISPLTFGGGTKLEIKRAAAEQKLISEEDLNGAAHHHHHH
Regarding B1, the “Binding of scFv to immobilized FVIII/FV^1811-1818 chimera” value is on record as “did not recognize”.

For the origin of these results see US8586538B2, “Method of treating a patient suffering from a bleeding disorder comprising administering an antibody against the A3-C1 of FVIII” (Stichting Sanquin Bloedvoorziening, priority 2002, dated 2013).
